What all share (test): affinity HPLC, POROS AAVX resin, linear pH gradient 4.5 to 2.2, AAV2 peak top
Test [1] deals with AAV2 E499A (adeno-associated virus serotype 2 (AAV2)) (UniProt P03135).
Test [2] has as its target AAV2 G383A (adeno-associated virus serotype 2 (AAV2)) (UniProt P03135).
For test [3], the target named is AAV2 R471A (adeno-associated virus serotype 2 (AAV2)) (UniProt P03135).
In test [4] the target is AAV2 D529A (adeno-associated virus serotype 2 (AAV2)) (UniProt P03135).
Test [5] has as its target AAV2 Q385A (adeno-associated virus serotype 2 (AAV2)) (UniProt P03135).
Test [6] addresses AAV2 S267T (adeno-associated virus serotype 2 (AAV2)) (UniProt P03135).
In test [7] the target is AAV2 S384A (adeno-associated virus serotype 2 (AAV2)) (UniProt P03135).
For test [8], the target named is AAV2 H271A (adeno-associated virus serotype 2 (AAV2)) (UniProt P03135).
Test [9] has as its target AAV2 D528A (adeno-associated virus serotype 2 (AAV2)) (UniProt P03135).
In test [10] the target is AAV2 H271T (adeno-associated virus serotype 2 (AAV2)) (UniProt P03135).

In patent US20250236657A1 (TOSOH, published 2025) one finds AAVX column elution time data, which are given here for one substance.

As for “POROS Capture Select AAVX Affinity Resin (manufactured by Thermo Fisher Scientific)”, the AAVX column elution time in test [1] amounted to 47.8 min; in [2], 48.1 min; in [3], 48.1 min; in test [4], 47.8 min; in [5], 47.9 min; in [6], 48 min. For the same substance, the AAVX column elution time in test [7] is 48 min; in [8], 48.2 min; in test [9], 47.8 min; in test [10], 47.9 min.
